For experiment [1], the target named is T1, IL-6 receptor (IL-6R), in Jurkat cell membrane extract (UniProt P08887 20-468).
T1 construct: IL-6 receptor in membrane protein or membrane extract of Jurkat cells; also called IL-6Rα; source: Jurkat cells, membrane extract
T1 sequence (looked up): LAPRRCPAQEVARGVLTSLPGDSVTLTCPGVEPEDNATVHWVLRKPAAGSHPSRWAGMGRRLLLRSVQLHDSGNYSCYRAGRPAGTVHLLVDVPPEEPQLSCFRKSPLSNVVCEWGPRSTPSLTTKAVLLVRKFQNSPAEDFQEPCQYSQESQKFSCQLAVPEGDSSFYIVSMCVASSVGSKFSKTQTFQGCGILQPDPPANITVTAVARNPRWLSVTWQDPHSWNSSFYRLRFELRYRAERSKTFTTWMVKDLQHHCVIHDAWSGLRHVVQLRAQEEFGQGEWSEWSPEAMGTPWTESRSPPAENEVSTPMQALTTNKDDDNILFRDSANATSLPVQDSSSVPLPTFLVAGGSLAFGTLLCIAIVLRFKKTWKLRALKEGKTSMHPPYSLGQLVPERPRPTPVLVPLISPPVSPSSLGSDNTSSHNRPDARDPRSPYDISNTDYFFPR
The experiment is described as follows: radioligand binding; saturation: equivalent quantities of Jurkat cell membrane extract with 2-fold serial dilutions of 125I-CTRP4; nonspecific binding with 500-fold excess of CTRP4; 24 hours at 4°C, 25% PEG, γ counter. To be noted: one partner purified.

Experiment [2] addresses T1, IL-6 receptor (IL-6R), in Jurkat cell …. The experiment is described as follows: radioligand binding; competition: Jurkat cell membrane extract and 125I-CTRP4 with different concentrations of unlabeled CTRP4, OSM or IL-6; 24 hours at 4°C, 25% PEG, γ counter. To be noted: one partner purified.

For orientation: Kd means a measure of binding affinity in units of concentration. For orientation: IC50 means the concentration at which inhibition is half-maximal. High values mean a need for much substance, low ones inhibition by little substance.

B1: 125I-CTRP4 (natural protein)
chain: not shown
modifications: 125I label (chloramine T)
notes: rhCTRP4 protein purified from CTRP4-CHO cells; also called radio-iodinated CTRP4; 125I-labeled CTRP4
For the molecule B1, in experiment [1], the Kd came to 3.94 nM.

B2: rhCTRP4 protein (unlabeled) (natural protein)
chain: not shown
notes: rhCTRP4 protein purified from CTRP4-CHO cells; also called unlabeled CTRP4; recombinant CTRP4 protein
Take B2: the half-maximal inhibitory concentration (IC50) in experiment [2] was 77.2 nM.

For the origin of these results see article PMC10866667, “CTRP4/interleukin-6 receptor signaling ameliorates autoimmune encephalomyelitis by suppressing Th17 cell differentiation” (The Journal of Clinical Investigation, 2023).
